Reference: paper PMC11253692

Biological target: TGF-β1 (human, UniProt P01137 279-390)
Assay: ELISA

Sequence of TGF-β1 (P01137 279-390): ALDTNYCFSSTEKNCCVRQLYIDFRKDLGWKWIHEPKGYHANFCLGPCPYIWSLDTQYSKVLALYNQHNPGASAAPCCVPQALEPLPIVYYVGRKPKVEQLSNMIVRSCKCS

B1: TGF-β1 aptamer (ssDNA)
DNA: CGCTCGGCTTCACGAGATTCGTGTCGTTGTGTCCTGTACCCGCCTTGACCAGTCACTCTAGAGCATCCGGACTG
modifications: 5'-SH (coupled to PEG-maleimide hydrogel)
binding signal: > 60 % bound (highest binding ratio, reached at 4 h)
